The term Ki denotes a dissociation constant, usually derived from enzyme kinetics or from competition with a known ligand.

For the experiment, the target named is recombinant His-tagged MDM2 (amino acids 1-118) (human) (UniProt Q00987). In words: FP; competition with PMDM6-F.

As for “natural p53 peptide (from UniProt P04637)”, the inhibitory constant (Ki) was determined as 6.7 µM.

The values above are taken from PMC2794250, “An MDM2 antagonist (MI-319) restores p53 functions and increases the life span of orally treated follicular lymphoma bearing animals” (2009).
